assay: soluble on expression in E. coli; label from the status in PepcDB or PDB records

Row | Sequence | soluble on expression in E. coli
1 | AIACGDCVEKEYPNRGNTCLENGSFLLNFTGCAVCSKRDFMLITNKSLKEEDGEEIVTYDHLCKNCHHVIARHEYTFSIMDEFQEYTMLCLLCGKAEDTISILPDDPRQMTLLF | soluble
2 | MFEAEIDCNIPGALWCGELYVLEQDVVFPDLLRIDRFCTSKSKKMFRFDVYPGSDFPTVDLELTYKFNHNCSADGETYCVKPKWSKKVNGRVGQSVGFDIDARPHGKPSRCKPPFYF | not soluble
3 | MGSDKIHHHHHHMYMIKQNFTTKVYPLKQFEGEYSEVAYAGDSQADDVIVFIHGALLTYKIMTMFEPYFRDYKLIFINCPSRGRSSDLDRDTHTLDDYAARIYDVLTQIVKEQQIKELSIVGYSMGGMIATRLLKYNTLPVSHLIYLHSAAKITPDASMLARLFTSESKRAVLKDEIKAVKNLPQYILDKTIYAQKENALDLVQFIAPIKTIITDMIYTINTDYLPDIDEIKQFPKILFMSGKEDQIIPYTDSQATLEKFKALGGETKEVIYPGIGHIDFPSVLETQSDGQTGVVDEIKAWISKK | not soluble
4 | MEAHNVEISTRLTPEMKNQGTIELLYKALQQGDTSTVTKVVASDVEWWFHGPHDCQHMMRLLTGEPPRQVSFRFEPSSVQVVVPGHDCVIAEGWEGSRVYWVHVWKLKDGVVTELREYFNTWLTVTDYSLGAVGWDMGRCTVWESVPRDLARGSLPSLLLAI | soluble
5 | MGSDKIHHHHHHMKLPPLQIGDLKADIPIIQGGMGVGISRSSLASAVANCGGVGTISGVQIGFDEPDFETNTFNANIRALNKHIKKAKQESKRGIIAVNFMVAMNDYDKYVKSAVDAGADLIVSGAGLPTALPKIVEGSKVKIAPIVSSPKAASVICKMWDKHHGRIPDLIVVEGPEAGGHLGFKAEQVKGSHEELSDILTGVLTAIKPFEEKHGVKIPVVCGGGVFYGKDIAKYIKLGASGVQMATRFIATEECDANLNYKNVYVNCKEDDIKIVKSPVGMPGRAISNKFVQSNDKNITITKCYNCLKPCNPKDTPYCISKALINAVNGNVDEALLFTGAKSYKIDKIVKVKELINELISDAECEF | not soluble
6 | ALTEEILNAQPNPICVKDRNLHYIAVNKAFSAIHDLAPDAMLGRSASDLVETELAEHFERSDRHVLETGTPYSEAEHIVRADGSDLWVVTRKYRVGLPDRHFVVTCMNDVT | not soluble
7 | GMSDLQSLQPKLLWQWFDQICAIPHPSYKEEQLAQFIINWAKTKGFFAERDEVGNVLIRKPATVGMENRKPVVLQAHLDMVPQANEGTNHNFDQDPILPYIDGDWVKAKGTTLGADNGIGMASALAVLESNDIAHPELEVLLTMTEERGMEGAIGLRPNWLRSEILINTDTEENGEIYIGCAGGENADLELPIEYQVNNFEHCYQVVLKGLRGGHSGVDIHTGRANAIKVLLRFLAELQQNQPHFDFTLANIRGGSIRNAIPRESVATLVFNGDITVLQSAVQKFADVIKAELALTEPNLIFTLEKVEKPQQVFSSQCTKNIIHCLNVLPNGVVRNSDVIENVVETSLSIGVLKTEDNFVRSTMLVRSLIESGKSYVASLLKSLASLAQGNINLSGDYPGWEPQSHSDILDLTKTIYAQVLGTDPEIKVIHAGLECGLLKKIYPTIDMVSIGPTIRNAHSPDEKVHIPAVETYWKVLTGILAHIPSR | soluble
8 | MTSPASCSPPNEKRTGSPFPPESRSLPSTMEMTMNTIFRPAPHPLPDAPFYTPLGNECVLFESAWVRQLPLLLKGPTGCGKTRFVSHMAAKLGLPLSTISCHDDLAAADLTGRYLLKGGETVWMDGPLTRSVRQGGICYLDEIVEARKDVAVVLHPLTDDRRILPLERTGEVLEAPSGFMLVVSYNPGYQNLLKSLKPSTRQRFVAIEFDFLPKEQEIAVVSHESGLDARDVEPLVDLAHRLRGLKGHDLEEGVSTRLLVYCASLIDTGLPARQAVRATMIEPLTDEPDVKAALHEVADAIIRLEHHHHHH | not soluble
9 | MGSDKIHHHHHHMLKEFKEQRLKEIQELRSMGIEPYPYKFEKELTAREIREKYDYLQAGEVLESEKLSFAGRVMSIRHHGKTAFFHMKDDTGRIQAYIKADSVGKEKMDLFKRHVKIGDFVGVRGFPFKSKTGELTIYVQEYTLLSKALRPLPEKWHGIKDKEIIYRQRYLELIVNDEAIERFKKRFKAVRVIREFLNSRGFIEVETPILHYVTGGAEARPFVTHLNVFDIDMYLRIAPELYLKRLIVGGFEKIYEIGKNFRNEGISYKHSPEFTSIEIYQAYADYNDMMDLTEELIVEVVKRTCGTLKISYQGKEIDFTPPWKRVRMRDFLKEKLGVDILEDPDEVLLKKLEEHGVELEIKNRAHLIDKLRDLVEEELVNPTFIIDHPVVISPLAKRHREDPRLTERFELIIFGREIANAFSELNDPVDQYQRFLEQAKMREEGDEEAHMMDLDFVRALEYGMPPTGGLGIGLDRLFMFITDSPTIRDVIPFPIVKPKKFEEEEAEFEGGFEE | not soluble
10 | MNIPQLTALCLRYHGVLLDASEEVVHVAVVDAPSHELLDALHFATTKRIEITCWTRQQMEGHASRTQQTLPVAVQEKHQPKAELLTRTLQSALEQRASDIHIEPADNAYRIRLRIDGVLHPLPDVSPDAGVALTARLKVLGNLDIAEHRLPQDGQFTVELAGNAVSFRIATLPCRGGEKVVLRLLQQVGQALDVNTLGMQPLQLADFAHALQQPQGLVLVTGPTGSGKTVTLYSALQKLNTADINICSVEDPVEIPIAGLNQTQIHPRAGLTFQGVLRALLRQDPDVIMIGEIRDGETAEIAIKAAQTGHLVLSTLHTNSTCETLVRLQQMGVARWMLSSALTLVIAQRLVRKLCPHCRRQQGEPIHIPDNVWPSPLPHWQAPGCVHCYHGFYGRTALFEVLPITPVIRQLISANTDVESLETHARQAGMRTLFENGCLAVEQGLTTFEELIRVLGMPHGE | soluble
11 | MAHHHHHHMCTTNLENLVVDSVTRTGNNNASNTFLGDVLLASNKESQNITQYHPGVSSKDQPDVCGDVRYSFADIADIIRGTDVWSKQSQQMLLQGYLEQTFGKIKDKFKGTEKYDSDSHHPQIL | not soluble
12 | MSRHWPLFDLRITTPRLQLQLPTEELCDQLIDTILEGVHDPDRMPFSVPWTRASREDLPFNTLSHLWQQLAGFKRDDWSLPLAVLVDGRAVGVQALSSKDFPITRQVDSGSWLGLRYQGHGYGTEMRAAVLYFAFAELEAQVATSRSFVDNPASIAVSRRNGYRDNGLDRVAREGAMAEALLFRLTRDDWQRHRTVEVRVDGFDRCRPLFGPLEPPRY | soluble
13 | MSLYISYSPLRITFGGGGTDVEPFLSKHGGAVVNATIDRGVSVRYIEDEFQLELSSRDFVRSYIVNMHRAASVTKMMADFLSEAGITNGRVIMSGDAPPGSGLGSSSSAVSALMNLVNSIRGRTVDPATLAEESYNLERNHFHVVLGKQDPYAIAYGGFKYMEFGADGVKREDLGQYSEFTTELQRRILLVYTGKTRQSSEVLMEQVKASEMGDEKTDRNLLQMKDVARRLRDAVVKNDMDEFAHQINRGWEIKKSLSSRITNDHIDRIIALALSNGAQAARLMGGGSQGFVLVMCKPENLNYIQRRMMSISNFVVRTSFDMKGTRMIGHEGHHHHHH | not soluble
14 | GPGSMPRCTTLPLSSFPSLLTFMTVCAASSSPPLPRFRVAHLCRRGKDCLALARSLSLPIVEGAEGGGGRCGCSEWRREGAGERCSVFYLSLPASNFMCINFASPLHLRSPGARHIDVQDVPMERNTLQVVASAVNAEALSGAEDHACHASPVHRVYRLRDACTTLQLILLAYKYRRCSAHSMTVAMFVEACAYDLVQGVRVLESAPLSSSPGHDSSGDAIATLEAPWFYIGSEAGGDVRVYLLLPTYADYFLDYTMHWARVAYSEMARQYVGHSLIAKLQTVGGGWASLHRADKSLACALQLHAVAQAVFDEDVVRKCRLFIGWAHLWNSEPAKALEVFYAELAAARRHGDTIQERRCLHAIQNAEHNPRLAPGGAHTGHYQLVNLWWRALA | soluble
15 | MAHHHHHHMEDEKVGTANNDEKVTMSMPEEYMPKNISEILIGAVEEDRTYALKGDEPCDSYIKLGEIVHGTNEKTTQFTFPKNKVLCVQLEAINGNGYLWALLGVHKEKPQINPEEFPRKKITKSFFTNEISVTQPKAIQKNTSNNGGDISPNSSGYGKPRGSEHLGGFVGGASTLQSMVKAHKAGTFYIVYSYYRPFDPTASANTKILQLTVS | soluble
16 | MWLFEESAVGFCSNSGVIDNKHAGYTGTGFIDTENAVGASIVWSLSAASAKTYTAQIRFGNGGTSARRATVVVNDSQIKTLDFPTNSNWTQWQTVNVDIPLKAGTNSIKLVAETADGLANIDSIRVTGNGITPAACPLEHHHHHH | soluble
17 | MSLITLTTDFGLKGPYVGEMKVAMLRINPNAKIVDVTHSVTRHSILEGSFVMEQVVKYSPKGTVHVGVIDPGVGTERRAIVIEGDQYLVVPDNGLATLPLKHIKVKSVYEIIPDKIRKFTGWEISSTFHGRDIFGPAGALIEKGIHPEEFGREIPVDSIVKLNVEPRKEGDVWILKVIYIDDFGNVILNLENYEKPRTVELLDFNLRLPYLETYGLVEKGEMLALPGSHDYLEIAVNMGSAAERLNVKVGDELRVRLLEGGSHHHHHH | soluble
18 | MNAPVKFEYFKNPKNRELTAVELEAFAKELDQIKQEVLDDIGEKDAKYIRRVYSAVRYSSMLGRACLFAGWFPPAWILGTGLLGFSKIMENMELGHNVMHGQYDWMNDPKFNGQTYEWDTVGTADNWRQTHNYKHHTYTNIKGIDDDIGYGLLRLFPEQRWKPGFLLQPIYSIPFCMLFQWGVAIQNLEIGKLIYKRKTWKQFKQECKPTQKKIGKQLFKDYVFFPLIAGPAALPVFTGNLVANGIRNAWTFSIIFCGHFTKDVEVFPKTVLQNETRGHWYMRQIRGSSNLTGSEAFHILTGHLSHQIEHHLFPDVPARRYRQMAPKVEAVCKKYGLNYNNASLFKQYGQVLGRIVKYAFPFKKLEHHHHHH | soluble
19 | MAKVIRNRWVYRTDNKWTRYLPRRNDAVKEFDYDKNGASLKHYTEEISEEMRPKQASKLWMAWLYRDTSAEPKWTKKHVENLFGADFKVGRMEVFRNTELINTELWKIKHLIELRPVEFKNGVEPTEDDIFSTSLAPNGQCEVIQGGHVASENDLKLADGKQWTRKELGRDLNKKYHLYQSVYEQNVHTPNNITVVK | not soluble
20 | MFEKSFTLCDMEPTEINGGRFYARPLHNDERIDDSPALQLVDAHLTVDEARTAWNHDTIYTWAVCEQTNVEMIALAALHITETATVLDIAPVGDPNRKLPNDPVLTPKTVGDAVTEIRGPITRWCTAHGINISN | not soluble
21 | MAGDRKRGFIRPDEDYALIEPQRWGLPDYGDSKEKKAKQTAFNYDPSWVPNFDEPEEEQALELTEEQIELIKQGAYQEGLYQGQEAGFKQGYDKGKEEGLQAGHAEGLELGKAEGVSAGQEFIQQQVEVFMNLANQFAQPLELMNAQVEKQLVDMVLCLVKEVVHVEVQTNPQIILDTVKQSVEALPISGHPITLHLNPEDVAIIRSAYGEEDLDCRNWTLVSEPSLNRGDVQIEAGESSINYRMEERIKSVLHSFCGANRHQEGE | not soluble
22 | GVLAPVVPGKALEFPQDFGAHNDFRIEWWYVTGWLETPTGKPLGFQITFFRTATEIDRDNPSHFAPDQLIIAHVALSDPAIGKLQHDQKIARAGFDLAYARTGNTDVKLDDWIFVRETDGRYRTRIEAEDFTLTFILTPSQPLMLQGENGFSRKGPGAPQASYYYSEPHLQVSGIINRQGEDIPVTGTAWLDREWSSEYLDPNAAGWDWISANLDDGSALMAFQIRGKDDSKIWAYAALRDASGHTRLFTPDQVSFHPIRTWRSARTQAVYPVATRVLTGETEWQITPLMDDQELDSRASAGAVYWEGAVTFTRDGQPAGRGYMELTGYVRPLSM | soluble

Reference: the DeepSol protein solubility set
